Experiments:
[1] = target: Trypanosoma brucei FoF1–ATP synthase complex (Trypanosoma brucei (endogenous in PCF and BSF cells)); experiment: native gel or EMSA; blue native electrophoresis of DDM-lysed (2% PCF, 4% BSF) mitochondria, 3 to 12% native gradient gel, 4 °C; Western blot with antibodies against subunit β and Tb2; cells noninduced or with Tb1 or OSCP silenced or ablated
[2] = target: Trypanosoma brucei FoF1–ATP synthase complex (Trypanosoma brucei (endogenous in PCF and BSF cells)); experiment: native gel or EMSA; high-resolution clear native electrophoresis of digitonin-lysed (4 mg/mg protein) crude mitochondrial vesicles from PCF and BSF parasites, 3 to 12% native gradient gel, 4 °C; Western blot with antibodies against p18 and Tb1

stoichiometry N [1]: 2
stoichiometry N [2]: 2
Substance: Trypanosoma brucei FoF1–ATP synthase complex

— publication PMC7949148
